Experiments:
[1] = tested on: CHO-K1/SpyC_C-BLA cells; test: live-cell confocal microscopy of split β-lactamase complementation; format: cell-based, Chinese hamster; details: for cytosolic delivery and β-lactamase complementation signal by confocal microscopy: CHO-K1/SpyC_C-BLA cells, 4 µM protein, live cell confocal microscopy, Figure 3c–f
Text: (a) Live-cell functional uptake can be measured when N-terminal β-lactamase (N-BLA), fused to a CPP sequence, penetrates the cell membrane to complement C-terminal β-lactamase protein (C-BLA) in the cytosol (step i). Expression of the split β-lactamase moieties as fusions with either SpyTag (CPP_N-BLA_SpyT) or SpyCatcher (SpyC_C-BLA) facilitates rapid formation of functional β-lactamase proteins through SpyT/SpyC ligation inside the cells (step ii). This internalization is detected after addition of dye substrate (step iii) through cleavage of cytosol-retained CCF2 (step iv), which is measured via a change in fluorescence signal from green (520 nm) to blue (450 nm). (b) Internalization of CPP_N-BLA_SpyT and β-lactamase complementation in CHO-K1/SpyC_C-BLA cells is dose-dependent, measured by CCF2 cleavage (increase in % blue viable cells as estimated by flow cytometry). […] Error bars represent standard error of the mean of two independent experiments (duplicate samples). […] Bar scale is 50 µm.
(§1) Successful complementation of β-lactamase was dose- and CPP-dependent, with a limit of detection of ≤1 µM of CPP_N-BLA_SpyT. β-Lactamase complementation and N-BLA fragment internalization was visually confirmed using live cell confocal microscopy in CHO-K1/SpyC_C-BLA cells treated with Phylomer CPP_N-BLA_SpyT proteins (Figure 3c–f). The fluorescence signal is detectable as early as 30 min (Figure S2a). Signal conversion over time was confirmed by imaging cells treated with 1746c27_N-BLA_SpyT at sequential time points (Figure S2b,c), thus completing validation of the split assay system.
Cells were seeded (CHO-K1, 37,500 cells/mL; T47D 37,500 cells/mL) onto 4-well ibiTreat chamber slides (Thermo Fisher Scientific) and incubated for 48 h at 37 °C, 5% CO2. The medium was removed and replaced with medium containing SpyC_BLA/CPP_SpyT conjugated or unconjugated SpyC_BLA proteins and cells were incubated for 2 h at 37 °C, 5% CO2. After incubation, the cells were washed to remove any SpyC_BLA protein that had not internalized, loaded with substrate CCF2-AM (2 µM final concentration in media containing 1% FCS), and incubated for 1 h at room temperature. Live cells were visualized through confocal microscopy. Images were collected using a Nikon C2 Confocal Microscope through a 40× differential interference contrast (DIC) objective after excitation by a 408 nm laser. Bar scales in images represent 50 µm or 14.6 µm (zoom magnification 3.4×).
Figure S2. Split β-lactamase assay time course.
Live cell confocal microscopy imaging the CPP-mediated cytosolic internalization of 1746c27_N-BLA_SpyT (8 µM) in CHO-K1/C-BLA cells at (a) 30 min, (b) 60 min, and (c) 120 min after addition of CCF2-AM dye. The β-lactamase complementation signal is detectable as early as 30 min and continues to convert over time. Repeated excitation over time results in photobleaching of the converted fluorescence resonance energy transfer (FRET) substrate. Bar scale is 50 µm. […]
(also on this page, place not known: De ad ( B) ( D) ( E) 1746c27_N-BLA_SpyT + CHO-K1/SpyC_C-BLA) […]

[2] = tested on: CHO-K1/SpyC_C-BLA cells; test: split β-lactamase cytosolic delivery assay (CCF2-AM, flow cytometry); format: cell-based, Chinese hamster; details: CHO-K1/SpyC_C-BLA stable cells, blue fluorescent cells after 1 h, two independent experiments, duplicate samples, Figure 3b
Text: SpyT/SpyC ligation enables specific covalent linkage of the split components when mixed together, thus reactivating β-lactamase activity. SpyC_C-BLA was selected for mammalian expression in stable cell lines, and N-BLA_SpyT was selected for CPP incorporation onto its N-terminus (CPP_N-BLA_SpyT). Constitutively expressed SpyC_C-BLA in the cytoplasm of stable cell lines can be complemented by CPP-delivered N-BLA_SpyT, thus forming functional β-lactamase.
In brief, CPP sequences are made as fusions to N-BLA_SpyT (CPP_N-BLA_SpyT, Figure 3a, step i). […] Cell penetrating peptide-dependent β-lactamase complementation and activity is detected by cleavage of the CCF2 substrate (Figure 3a, step iv). As in the full-length β-lactamase internalization assay, this reaction is measured as a shift in fluorescent signal from green to blue. […]
as §1, with “Signal conversion over time was confirmed by imaging cells treated with 1746c27_N-BLA_SpyT at sequential time points (Figure S2b,c), thus completing validation of the split assay system.” left out

Molecule	cytosolic delivery and β-lactamase complementation signal by confocal microscopy [1]	β-lactamase complementation signal (% blue viable cells) [2]	earliest time at which β-lactamase complementation signal is detectable ([1]; 8 µM in CHO-K1/C-BLA cells, time after addition of CCF2-AM dye, imaged at 30, 60, 120 min, Figure S2) [min]
N-BLA_SpyT: N-terminal β-lactamase fragment fused to SpyTag; No CPP negative control of split assay (protein) MGHHHHHHGATLEVLFQGPGGSQLHPETLVKVKDAEDQLGARVGYIELDLNSGKILESFRPEERFPMMSTFKVLLCGAVLSRIDAGQEQLGRRIHYSQNDLVEYSPVTEKHLTDGMTVRELCSAAITMSDNTAANLLLTTIGGPKELTAFLHNMGDHVTRLDRWEPELNEAIPNDERDTTMPAAMATTLRKLLTGGGSASGGSGTGATSGAHIVMVDAYKPTKGVDG	minimal evidence of internalization	negligible effect	
1746c27_N-BLA_SpyT: phylomer CPP 1746c27 fused to N-terminal β-lactamase fragment and SpyTag (protein, left off: His6, internal (after the CPP, by the printed letters), state not stated, phylomer CPP 1746c27 fused to N-terminal β-lactamase fragment and SpyTag) MASKKKKQPPKPKKPKTQEKKKKQPPKPKRASSGSHHHHHHGTGAGSGHPETLVKVKDAEDQLGARVGYIELDLNSGKILESFRPEERFPMMSTFKVLLCGAVLSRIDAGQEQLGRRIHYSQNDLVEYSPVTEKHLTDGMTVRELCSAAITMSDNTAANLLLTTIGGPKELTAFLHNMGDHVTRLDRWEPELNEAIPNDERDTTTPAAMATTLRKLLTGGGSASGGSGTGATSGAHIVMVDAYKPTKGGTGGS	cytosolic delivery		30
1746_N-BLA_SpyT: phylomer CPP 1746 fused to N-terminal β-lactamase fragment and SpyTag (protein, left off: His6, internal (after the CPP, by the printed letters), state not stated, phylomer CPP 1746 fused to N-terminal β-lactamase fragment and SpyTag) MASPLKPKKPKTQEKKKKQPPKPKKPKTQEKKKKQPPKPKRASSGSHHHHHHGTGAGSGHPETLVKVKDAEDQLGARVGYIELDLNSGKILESFRPEERFPMMSTFKVLLCGAVLSRIDAGQEQLGRRIHYSQNDLVEYSPVTEKHLTDGMTVRELCSAAITMSDNTAANLLLTTIGGPKELTAFLHNMGDHVTRLDRWEPELNEAIPNDERDTTTPAAMATTLRKLLTGGGSASGGSGTGATSGAHIVMVDAYKPTKGGTGGS	cytosolic delivery		
0084_N-BLA_SpyT: phylomer CPP 0084 fused to N-terminal β-lactamase fragment and SpyTag (protein, left off: His6, internal (after the CPP, by the printed letters), state not stated, phylomer CPP 0084 fused to N-terminal β-lactamase fragment and SpyTag) MASRKQKSLQTKLAENPPVPRKKRQSRPRWKQWLQKASSGSHHHHHHGTGAGSGHPETLVKVKDAEDQLGARVGYIELDLNSGKILESFRPEERFPMMSTFKVLLCGAVLSRIDAGQEQLGRRIHYSQNDLVEYSPVTEKHLTDGMTVRELCSAAITMSDNTAANLLLTTIGGPKELTAFLHNMGDHVTRLDRWEPELNEAIPNDERDTTTPAAMATTLRKLLTGGGSASGGSGTGATSGAHIVMVDAYKPTKGGTGGS	cytosolic delivery		

From article PMC6163455 (Biomolecules, 2018)
